Results on one molecule are retold here after publication PMC9678781 (The Journal of Biological Chemistry, 2022).

The target in assay [1] is SARS-CoV-2 Spike S2 subdomain (aa 686-1211), 8xHis-tagged (SARS-CoV-2 Wuhan-Hu-1, UniProt P0DTC2). In words: flow cytometry on cells. The following applies: one partner purified.
The target of assay [2] is SARS-CoV-2 Spike S1 subdomain (aa 2-682), 8xHis-tagged (SARS-CoV-2 Wuhan-Hu-1, UniProt P0DTC2). Nature of the assay: flow cytometry on cells. Conditions: one partner purified.

B1: B9-scFv displayed on the 293T cell surface (pBovShow) (scFv)
VH: QVQLRESGPSLVKPSQTLSLTCTASGFSLSDKAVGWVRQAPGKALEWLGGIDTGGSTGYNPGLKSRLSITKDNSKSQISLSVSSVTTEDSATYYCTTVHQRDSCPYDSSHSQYCSYGWSCGVYNCRPAVWYRYGSCGTCDNLFSYVDAWGQGLLVTVSS
VL: QAVLNQPSSVSGSLGQRVSITCSGSSSNVGNGYVSWYQLIPGSAPRTLIYGDTSRASGVPDRFSGSRSGNTATLTISSLQAEDEADYFCASAEDSSSNAVFGSRTTLTVL
Turning to B1, the binding result in assay [1] was “no binding (tested: 2 μM)”; in assay [2], “binds”.
